Measurements taken from US11653679B2, “High-purity steviol glycosides” (PureCircle Sdn Bhd, priority 2014, dated 2023).
Positions count from the first letter of the chain named.

B1: UGT76G1var56: UGT76G1 variant, mutations L246F_A352G_S357N_Q432E (protein, UniProt Q6VAB4 1-458, looked up, variant L246F A352G S357N Q432E)
UDP-glycosyltransferase 76G1: MENKTETTVRRRRRIILFPVPFQGHINPILQLANVLYSKGFSITIFHTNFNKPKTSNYPHFTFRFILDNDPQDERISNLPTHGPLAGMRIPIINEHGADELRRELELLMLASEEDEEVSCLITDALWYFAQSVADSLNLRRLVLMTSSLFNFHAHVSLPQFDELGYLDPDDKTRLEEQASGFPMLKVKDIKSAYSNWQILKEILGKMIKQTKASSGVIWNSFKELEESELETVIREIPAPSFLIPFPKHLTASSSSLLDHDRTVFQWLDQQPPSSVLYVSFGSTSEVDEKDFLEIARGLVDSKQSFLWVVRPGFVKGSTWVEPLPDGFLGERGRIVKWVPQQEVLAHGAIGGFWTHNGWNSTLESVCEGVPMIFSDFGLDQPLNARYMSDVLKVGVYLENGWERGEIANAIRRVMVDEEGEYIRQNARVLKEKADVSLMKGGSSYESLESLVSYISSL
B2: UGT76G1var3: UGT76G1 variant, mutations I295T_S357C_V366I (protein, UniProt Q6VAB4 1-458, looked up, variant I295T S357C V366I)
UDP-glycosyltransferase 76G1: B1 UDP-glycosyltransferase 76G1 with F246L, I295T, G352A, N357C, V366I, E432Q
B3: UGT76G1var4: UGT76G1 variant, mutations E224D_E231A_F265I (protein, UniProt Q6VAB4 1-458, looked up, variant E224D E231A F265I)
UDP-glycosyltransferase 76G1: B1 UDP-glycosyltransferase 76G1 with E224D, E231A, F246L, F265I, G352A, N357S, E432Q
B4: UGT76G1var59: UGT76G1 variant, mutations I335V_K393G_V394I_Y397Q (protein, UniProt Q6VAB4 1-458, looked up, variant I335V K393G V394I Y397Q)
UDP-glycosyltransferase 76G1: B1 UDP-glycosyltransferase 76G1 with F246L, I335V, G352A, N357S, K393G, V394I, Y397Q, E432Q
B5: UGT76G1var68: UGT76G1 variant, mutations Q342K_G348P_I373L_Y397E (protein, UniProt Q6VAB4 1-458, looked up, variant Q342K G348P I373L Y397E)
UDP-glycosyltransferase 76G1: B1 UDP-glycosyltransferase 76G1 with F246L, Q342K, G348P, G352A, N357S, I373L, Y397E, E432Q
B6: UGT76G1var60: UGT76G1 variant, mutations E231A_L243A_V279I_S357N (protein, UniProt Q6VAB4 1-458, looked up, variant E231A L243A V279I S357N)
UDP-glycosyltransferase 76G1: B1 UDP-glycosyltransferase 76G1 with E231A, L243A, F246L, V279I, G352A, E432Q
B7: UGT76G1var79: UGT76G1 variant, mutations E224D_T284I_V366I_I373L_K393G (protein, UniProt Q6VAB4 1-458, looked up, variant E224D T284I V366I I373L K393G)
UDP-glycosyltransferase 76G1: B1 UDP-glycosyltransferase 76G1 with E224D, F246L, T284I, G352A, N357S, V366I, I373L, K393G, E432Q
B8: UGT76G1var72: UGT76G1 variant, mutations T284L_D301N_K303G_S375R (protein, UniProt Q6VAB4 1-458, looked up, variant T284L D301N K303G S375R)
UDP-glycosyltransferase 76G1: B1 UDP-glycosyltransferase 76G1 with F246L, T284L, D301N, K303G, G352A, N357S, S375R, E432Q
B9: UGT76G1var77: UGT76G1 variant, mutations A239V_F265I_I295T_D301N_K393G (protein, UniProt Q6VAB4 1-458, looked up, variant A239V F265I I295T D301N K393G)
UDP-glycosyltransferase 76G1: B1 UDP-glycosyltransferase 76G1 with A239V, F246L, F265I, I295T, D301N, G352A, N357S, K393G, E432Q
B10: UGT76G1var2: UGT76G1 variant, mutations S274G_T284I_L379G (protein, UniProt Q6VAB4 1-458, looked up, variant S274G T284I L379G)
UDP-glycosyltransferase 76G1: B1 UDP-glycosyltransferase 76G1 with F246L, S274G, T284I, G352A, N357S, L379G, E432Q
B11: UGT76G1var80: UGT76G1 variant, mutations L243P_L379A_S389E_Q425E_Q432E (protein, UniProt Q6VAB4 1-458, looked up, variant L243P L379A S389E Q425E Q432E)
UDP-glycosyltransferase 76G1: B1 UDP-glycosyltransferase 76G1 with L243P, F246L, G352A, N357S, L379A, S389E, Q425E
B12: UGT76G1var69: UGT76G1 variant, mutations S274G_I295T_I335V_L379A (protein, UniProt Q6VAB4 1-458, looked up, variant S274G I295T I335V L379A)
UDP-glycosyltransferase 76G1: B1 UDP-glycosyltransferase 76G1 with F246L, S274G, I295T, I335V, G352A, N357S, L379A, E432Q
B13: UGT76G1var73: UGT76G1 variant, mutations F22Y_D301N_R334H_Q342E_V396F (protein, UniProt Q6VAB4 1-458, looked up, variant F22Y D301N R334H Q342E V396F)
UDP-glycosyltransferase 76G1: B1 UDP-glycosyltransferase 76G1 with F22Y, F246L, D301N, R334H, Q342E, G352A, N357S, V396F, E432Q
B14: UGT76G1var64: UGT76G1 variant, mutations F22L_A239I_R334H_I407V (protein, UniProt Q6VAB4 1-458, looked up, variant F22L A239I R334H I407V)
UDP-glycosyltransferase 76G1: B1 UDP-glycosyltransferase 76G1 with F22L, A239I, F246L, R334H, G352A, N357S, I407V, E432Q
B15: UGT76G1var81: UGT76G1 variant, mutations A33G_T263S_S274G_V279I_Y397E (protein, UniProt Q6VAB4 1-458, looked up, variant A33G T263S S274G V279I Y397E)
UDP-glycosyltransferase 76G1: B1 UDP-glycosyltransferase 76G1 with A33G, F246L, T263S, S274G, V279I, G352A, N357S, Y397E, E432Q
B16: UGT76G1var74: UGT76G1 variant, mutations I295T_I373L_S375R_Y397Q_Q432E (protein, UniProt Q6VAB4 1-458, looked up, variant I295T I373L S375R Y397Q Q432E)
UDP-glycosyltransferase 76G1: B1 UDP-glycosyltransferase 76G1 with F246L, I295T, G352A, N357S, I373L, S375R, Y397Q
B17: UGT76G1var65: UGT76G1 variant, mutations A33G_A239V_P382M_Q425E (protein, UniProt Q6VAB4 1-458, looked up, variant A33G A239V P382M Q425E)
UDP-glycosyltransferase 76G1: B1 UDP-glycosyltransferase 76G1 with A33G, A239V, F246L, G352A, N357S, P382M, Q425E, E432Q
B18: UGT76G1var75: UGT76G1 variant, mutations F41L_A239I_Q266S_S375M_P382M (protein, UniProt Q6VAB4 1-458, looked up, variant F41L A239I Q266S S375M P382M)
UDP-glycosyltransferase 76G1: B1 UDP-glycosyltransferase 76G1 with F41L, A239I, F246L, Q266S, G352A, N357S, S375M, P382M, E432Q
B19: UGT76G1var66: UGT76G1 variant, mutations F265L_V310I_V366I_A385T (protein, UniProt Q6VAB4 1-458, looked up, variant F265L V310I V366I A385T)
UDP-glycosyltransferase 76G1: B1 UDP-glycosyltransferase 76G1 with F246L, F265L, V310I, G352A, N357S, V366I, A385T, E432Q
B20: UGT76G1var78: UGT76G1 variant, mutations V279I_V300A_V310I_I335V_S357C (protein, UniProt Q6VAB4 1-458, looked up, variant V279I V300A V310I I335V S357C)
UDP-glycosyltransferase 76G1: B1 UDP-glycosyltransferase 76G1 with F246L, V279I, V300A, V310I, I335V, G352A, N357C, E432Q
B21: UGT76G1var70: UGT76G1 variant, mutations E224A_I295T_V300A_G348P (protein, UniProt Q6VAB4 1-458, looked up, variant E224A I295T V300A G348P)
UDP-glycosyltransferase 76G1: B1 UDP-glycosyltransferase 76G1 with E224A, F246L, I295T, V300A, G348P, G352A, N357S, E432Q
B22: UGT76G1var61: UGT76G1 variant, mutations I43V_F265I_Q266S_L379A (protein, UniProt Q6VAB4 1-458, looked up, variant I43V F265I Q266S L379A)
UDP-glycosyltransferase 76G1: B1 UDP-glycosyltransferase 76G1 with I43V, F246L, F265I, Q266S, G352A, N357S, L379A, E432Q
B23: UGT76G1var71: UGT76G1 variant, mutations I295M_V300A_K393G_Q432E (protein, UniProt Q6VAB4 1-458, looked up, variant I295M V300A K393G Q432E)
UDP-glycosyltransferase 76G1: B1 UDP-glycosyltransferase 76G1 with F246L, I295M, V300A, G352A, N357S, K393G
B24: UGT76G1var62: UGT76G1 variant, mutations L243P_P272A_V394I_V396F (protein, UniProt Q6VAB4 1-458, looked up, variant L243P P272A V394I V396F)
UDP-glycosyltransferase 76G1: B1 UDP-glycosyltransferase 76G1 with L243P, F246L, P272A, G352A, N357S, V394I, V396F, E432Q
B25: UGT76G1var57: UGT76G1 variant, mutations S241I_T263S_L379G_A385T (protein, UniProt Q6VAB4 1-458, looked up, variant S241I T263S L379G A385T)
UDP-glycosyltransferase 76G1: B1 UDP-glycosyltransferase 76G1 with S241I, F246L, T263S, G352A, N357S, L379G, A385T, E432Q
B26: UGT76G1var58: UGT76G1 variant, mutations S357C_S375M_N409R_Q425E (protein, UniProt Q6VAB4 1-458, looked up, variant S357C S375M N409R Q425E)
UDP-glycosyltransferase 76G1: B1 UDP-glycosyltransferase 76G1 with F246L, G352A, N357C, S375M, N409R, Q425E, E432Q
B27: UGT76G1var63: UGT76G1 variant, mutations F314S_R334H_Q342K_L379G (protein, UniProt Q6VAB4 1-458, looked up, variant F314S R334H Q342K L379G)
UDP-glycosyltransferase 76G1: B1 UDP-glycosyltransferase 76G1 with F246L, F314S, R334H, Q342K, G352A, N357S, L379G, E432Q
B28: UGT76G1var82: UGT76G1 variant, mutations E224D_L243A_F265L_R334H_A352G (protein, UniProt Q6VAB4 1-458, looked up, variant E224D L243A F265L R334H A352G)
UDP-glycosyltransferase 76G1: B1 UDP-glycosyltransferase 76G1 with E224D, L243A, F246L, F265L, R334H, N357S, E432Q
B29: UGT76G1var67: UGT76G1 variant, mutations E224D_F314S_S375R_Y397E (protein, UniProt Q6VAB4 1-458, looked up, variant E224D F314S S375R Y397E)
UDP-glycosyltransferase 76G1: B1 UDP-glycosyltransferase 76G1 with E224D, F246L, F314S, G352A, N357S, S375R, Y397E, E432Q
B30: UGT76G1var76: UGT76G1 variant, mutations F22Y_A239I_L246F_I295M_R334K (protein, UniProt Q6VAB4 1-458, looked up, variant F22Y A239I L246F I295M R334K)
UDP-glycosyltransferase 76G1: B1 UDP-glycosyltransferase 76G1 with F22Y, A239I, I295M, R334K, G352A, N357S, E432Q

Assay: Directed evolution of UGT76G1, Rebaudioside D to Rebaudioside M, round 1 (Example 26)
Format: biochemical
Conditions: 100 μL fresh lysate, 0.5 mM Rebaudioside D, 30° C., pH 7.2
How it was run: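 Cleared cell lysate (Bugbuster) incubated with 0.5 mM Rebaudioside D, 3 mM MgCl2 and 2.5 mM UDP-glucose in 50 mM phosphate pH 7.2 at 30 °C. Samples at 2, 4, 7 and 24 h analysed by HPLC-CAD for conversion and initial rate.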

Row | Molecule | conversion Reb D to Reb M after 24 h [%] | initial rate [Reb M area/min]
1 | B1 | 0.4 | 4.1E+04
2 | B2 | 9.6 | 1.6E+06
3 | B3 |  | 8.6E+06
4 | B4 | 33.0 | 2.7E+07
5 | B5 | −1.4 | −1.1E+05
6 | B6 | 0.5 | 9.5E+04
7 | B7 | 8.5 | 3.8E+06
8 | B8 |  | 9.1E+06
9 | B9 | 1.9 | 4.4E+05
10 | B10 |  | 4.7E+07
11 | B11 | 1.0 | 2.1E+05
12 | B12 |  | 8.3E+06
13 | B13 | 0.8 | 8.7E+05
14 | B14 | 0.3 | 3.1E+04
15 | B15 | 15.0 | 6.5E+06
16 | B16 | 0.6 | 9.6E+04
17 | B17 | 1.2 | 3.3E+05
18 | B18 | 0.8 | −1.3E+05
19 | B19 | 0.8 | 3.7E+05
20 | B20 | 3.2 | 8.2E+05
21 | B21 | 24.0 | 8.4E+06
22 | B22 | 6.4 | 2.0E+06
23 | B23 |  | 2.1E+07
24 | B24 | 0.1 | 3.4E+04
25 | B25 | 0.8 | 1.5E+05
26 | B26 | 7.5 | 2.2E+06
27 | B27 | 3.4 | 1.2E+06
28 | B28 | 1.1 | 2.5E+05
29 | B29 | −2.1 | −5.6E+05
30 | B30 | 2.6 | 7.2E+05
